Reference: PMC7145421

Target: PKR (endogenous) (UniProt Q03963)
Assay: FLAG co-immunoprecipitation, western blot
Conditions: reference: FLAG-WT PACT; sites S246

binding against the reference: weaker
Substance: PACT (FLAG-tagged wild type and mutant constructs) (from UniProt O75569) FLAG-S246A PACT
